In US6495144B2, “EBNA2 peptides and methods of using same” (Johns Hopkins University School of Medicine, priority 1996, dated 2002):
Entries after “also recorded” stand apart in the source; their conditions may differ. Marks after values point to notes of the source that are not given here.

B1: WW323SR (CR6): EBNA2 with tryptophans 323 and 324 in CR6 changed to SR (protein)
chain: MPTFYLALHGGQTYHLIVDTDSLGNPSLSVIPSNPYQEQLSDTPLIPLTIFVGENTGVPPPLPPPPPPPPPPPPPPPPPPPPPPPPPPSPPPPPPPPPPPQRRDAWTQEPSPLDRDPLGYDVGHGPLASAMRMLWMANYIVRQSRGDRGLILPQGPQTAPQARLVQPHVPPLRPTAPTILSPLSQPRLTPPQPLMMPPRPTPPTPLPPATLTVPPRPTRPTTLPPTPLLTVLQRPTELQPTPSPPRMHLPVLHVPDQSMHPLTHQSTPNDPDSPEPRSPTVFYNIPPMPLPPSQLPPPAAPAQPPPGVINDQQLHHLPSGPPSRPPICDPPQPSKTQGQSRGQSRGRGRGRGRGRGKGKSRDKQRKPGGPWRPEPNTSSPSMPELSPVLGLHQGQGAGDSPTPGPSNAAPVCRNSHTATPNVSPIHEPESHNSPEAPILFPDDWYPPSIDPADLDESWDYIFETTESPSSDEDYVEGPSKRPRPSIQ
B2: GP320SR (CR6): EBNA2 with two non-hydrophobic residues GP at 320 in CR6 changed to SR (protein)
chain: MPTFYLALHGGQTYHLIVDTDSLGNPSLSVIPSNPYQEQLSDTPLIPLTIFVGENTGVPPPLPPPPPPPPPPPPPPPPPPPPPPPPPPSPPPPPPPPPPPQRRDAWTQEPSPLDRDPLGYDVGHGPLASAMRMLWMANYIVRQSRGDRGLILPQGPQTAPQARLVQPHVPPLRPTAPTILSPLSQPRLTPPQPLMMPPRPTPPTPLPPATLTVPPRPTRPTTLPPTPLLTVLQRPTELQPTPSPPRMHLPVLHVPDQSMHPLTHQSTPNDPDSPEPRSPTVFYNIPPMPLPPSQLPPPAAPAQPPPGVINDQQLHHLPSSRPWWPPICDPPQPSKTQGQSRGQSRGRGRGRGRGRGKGKSRDKQRKPGGPWRPEPNTSSPSMPELSPVLGLHQGQGAGDSPTPGPSNAAPVCRNSHTATPNVSPIHEPESHNSPEAPILFPDDWYPPSIDPADLDESWDYIFETTESPSSDEDYVEGPSKRPRPSIQ
B3: PI326SR (CR6): EBNA2 with PI at 326 in CR6 changed to SR (protein)
chain: MPTFYLALHGGQTYHLIVDTDSLGNPSLSVIPSNPYQEQLSDTPLIPLTIFVGENTGVPPPLPPPPPPPPPPPPPPPPPPPPPPPPPPSPPPPPPPPPPPQRRDAWTQEPSPLDRDPLGYDVGHGPLASAMRMLWMANYIVRQSRGDRGLILPQGPQTAPQARLVQPHVPPLRPTAPTILSPLSQPRLTPPQPLMMPPRPTPPTPLPPATLTVPPRPTRPTTLPPTPLLTVLQRPTELQPTPSPPRMHLPVLHVPDQSMHPLTHQSTPNDPDSPEPRSPTVFYNIPPMPLPPSQLPPPAAPAQPPPGVINDQQLHHLPSGPPWWPSRCDPPQPSKTQGQSRGQSRGRGRGRGRGRGKGKSRDKQRKPGGPWRPEPNTSSPSMPELSPVLGLHQGQGAGDSPTPGPSNAAPVCRNSHTATPNVSPIHEPESHNSPEAPILFPDDWYPPSIDPADLDESWDYIFETTESPSSDEDYVEGPSKRPRPSIQ
B4: del344-357: EBNA2 with glycine-arginine repeats removed by deletion of amino acids 344-357 (protein)
chain: MPTFYLALHGGQTYHLIVDTDSLGNPSLSVIPSNPYQEQLSDTPLIPLTIFVGENTGVPPPLPPPPPPPPPPPPPPPPPPPPPPPPPPSPPPPPPPPPPPQRRDAWTQEPSPLDRDPLGYDVGHGPLASAMRMLWMANYIVRQSRGDRGLILPQGPQTAPQARLVQPHVPPLRPTAPTILSPLSQPRLTPPQPLMMPPRPTPPTPLPPATLTVPPRPTRPTTLPPTPLLTVLQRPTELQPTPSPPRMHLPVLHVPDQSMHPLTHQSTPNDPDSPEPRSPTVFYNIPPMPLPPSQLPPPAAPAQPPPGVINDQQLHHLPSGPPWWPPICDPPQPSKTQGQSRGQGKSRDKQRKPGGPWRPEPNTSSPSMPELSPVLGLHQGQGAGDSPTPGPSNAAPVCRNSHTATPNVSPIHEPESHNSPEAPILFPDDWYPPSIDPADLDESWDYIFETTESPSSDEDYVEGPSKRPRPSIQ
B5: type B EBNA2 comprising amino acids 216-392: homologous CBF1 interaction domain of human type B EBNA2, in vitro translated (protein)
chain: GHQLSLPPHPPPHQSTPHCSSDSTGLPPPPTSYSIPSMTLSPEPLPPPAAPAHPLPGVIYDQQALPPTPGPPWWPPVRDPTPTTQTPPTNTKQGPDQGQGRGRWRGRGRSKGRGRMHKLPEPRRPGPDTSSPSMPQLSPVVSLHQGQGPENSPTPGPSTAGPVCRVTPSATPDISPI

Experiments:
[1] = system: EBV latency C promoter (Cp-CAT); experiment: Cp-CAT transactivation by EBNA2 effector DNAs cotransfected in DG75 cells; assay type: cell-based, Epstein-Barr virus; details: for transactivation of Cp-CAT, dose-response, in words: 0-2.0 μg effector DNA, 2 μg target; for % Transactivation: relative EBNA2 transactivation of the Cp, at DNA concentrations giving 50% acetylation for wild-type EBNA2, mutations in full-length EBNA2
Experimental: FIGS. 4A-4B are graphs that depict μg effector versus % acetylation for transactivation in DG75 cells of a Cp-CAT construction (Ling et al. (1993b), supra) cotransfected at 2 μg with increasing amounts (i.e., 0, 0.25, 0.5, 1.0 and 2.0 μg) of the indicated EBNA2 effector DNAs. Immunoblot analysis confirmed the equivalent expression of the different EBNA2 effector constructions in transfected cells.
FIGS. 7A-7B are graphs that depict μg effector versus fold-induction for cotransfection assays comparing the ability of type A EBNA2 and type B EBNA2 to transactivate expression from Cp-CAT (FIG. 7A) and CD23p-CAT (FIG. 7B) (Ling et al. (1994), supra) in DG75 cells. The target plasmids were transfected at a constant amount (2 μg) and the effector DNAs at increasing amounts of 0, 0.25, 0.5, 1.0 and 2.0 μg.
In order to correlate the effect of the mutations on CBF1 interaction measured in the in vitro binding assays with the effects on CBF1 interaction in vivo in cultured cells, the point mutations and the glycine-arginine deletion were incorporated into full-length EBNA2 proteins which were used to study EBNA2 targeting in transactivation assays. The mutant proteins were synthesized in equal abundance in transfected cells as assessed by Western blot analysis. FIGS. 4A and 4B compare the ability of wild-type and mutant EBNA2 proteins to transactivate expression from the EBV latency C promoter in a dose-response assay (Ling et al. (1993b), supra).

[2] = target: T1, CBF1/RBPJk (Homo sapiens, UniProt Q06330); experiment: EMSA of EBNA2/CBF1 complex formation with in vitro translated EBNA2 peptides; assay type: binding; details: for behaviour in EMSA (competition for CBF1 complex, formation of supershifted EBNA2/CBF1 complex): equimolar in vitro translated peptides, Cp CBF1 binding site probe
T1 construct: EMSA using CBF1 purified by heparin-agarose chromatography; endogenous in cells; host or cells: CA46 cells (fractionated extract, heparin-agarose)
Source text: FIG. 3 is an autoradiogram that depicts the effect of mutations on the ability of an EBNA2 (i.e., E2) peptide comprising amino acids 252-425 to interact with CBF1/RBPJk: probe (lane 1); E2 only (lane 2); lysate (lane 3); CBF1 (lane 4); CBF1 and lysate (lane 5); CBF1 and E2 252-425 (lane 6); CBF1 and del376-425 (lane 7); CBF1 and del343-425 (lane 8); CBF1 and del252-366 (lane 9); CBF1 and del252-309, del398-425 (lane 10); CBF1 and del344-357 (lane 11); CBF1 and II307SR (CR5) (lane 12); CBF1 and GP320SR (CR6) (lane 13); CBF1 and WW323SR (CR6) (lane 14); CBF1 and PI326SR (CR6) (lane 15); CBF1 and SR360VD (PKC) (lane 16); and CBF1 and LGL389SRT (CR7) (lane 17). Results of an EMSA using CBF1 purified by heparin-agarose chromatography and a 30-base pair oligonucleotide probe containing the Cp CBF1 binding site (Ling et al. (1993a), supra) are shown. The wild-type EBNA2 and mutant EBNA2 peptides spanning amino acids 252-425 were in vitro transcribed and translated, and equimolar amounts were added to the binding reactions. Addition of unprogrammed reticulocyte lysate to the CBF1 extract (+lysate) produced a minor bandshift that migrated in the range of the E2/CBF1 complex. The EBNA2/CBF1 complexes (i.e., E2/CBF1 complexes) vary in mobility depending on the size of the added EBNA2 peptide.
FIG. 6 is an EMSA that compares the ability of type A EBNA2 (i.e., EBNA2 comprising amino acids 252-425) and the homologous domains of type B (i.e., EBNA2 comprising amino acids 216-392) and HVP EBNA2 (i.e., HBP EBNA2 comprising amino acids 288-470) to form complexes with CBF1/RBPJk. The EBNA2 peptides and CBF1/RPBPJk were prepared by in vitro transcription and translation. EBNA2 peptides were added with two-fold increases in amount (black triangles) to a binding mixture containing a constant amount of CBF1/RBPJk and a 30-base pair Cp CBF1 binding site probe. Symbols: P, probe only; R, reticulolysate.
The relative positions of the various functional domains the EBNA2 protein are depicted in FIG. 1. To define the amino acids required for interaction with CBF1, various synthetic peptides comprising the promoter targeting domain (i.e., the CBF1/RBPJk interaction domain) were constructed. The truncated and mutated peptides diagrammed in FIG. 2 were synthesized by in vitro transcription-translation, and were tested for their ability to form complexes with CBF1 that could be detected in an electrophoretic mobility shift assay (EMSA) (Ling et al., J. Virol., 69, 1944-1950 (1995)). The expressed peptides were tested using a fractionated extract of EBV negative lymphoblastoid CA46 cells (American Type Culture Collection, Rockville, Md.). The peptides were labeled with ^35S-methionine, and their integrity was confirmed by sodium dodecylsulfate sulfate-polyacrylamide gel electrophoresis (SDS-PAGE). To ensure that equal amounts of the EBNA2 peptides were added to each binding reaction mixture, the SDS-PAGE bands were quantitated using a Molecular Dynamics Phosphorimager, and the volume of the samples was adjusted on the basis of peptide size and the number of methionine residues.

[3] = linear range of the assay, 0.5 μg effector DNA

T1 sequence (Q06330 whole entry): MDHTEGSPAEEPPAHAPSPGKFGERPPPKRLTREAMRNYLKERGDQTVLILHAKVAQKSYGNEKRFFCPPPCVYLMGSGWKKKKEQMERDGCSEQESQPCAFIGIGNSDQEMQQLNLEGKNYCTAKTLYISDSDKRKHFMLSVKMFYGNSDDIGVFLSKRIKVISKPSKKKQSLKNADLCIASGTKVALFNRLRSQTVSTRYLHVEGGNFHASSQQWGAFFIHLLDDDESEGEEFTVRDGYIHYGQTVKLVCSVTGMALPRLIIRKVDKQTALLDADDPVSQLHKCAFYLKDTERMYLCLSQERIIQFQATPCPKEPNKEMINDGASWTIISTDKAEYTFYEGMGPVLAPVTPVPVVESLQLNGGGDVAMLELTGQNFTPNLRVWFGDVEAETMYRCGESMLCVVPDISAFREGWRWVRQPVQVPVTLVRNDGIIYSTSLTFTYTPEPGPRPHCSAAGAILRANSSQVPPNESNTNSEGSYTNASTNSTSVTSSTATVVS

Row | Molecule | transactivation of Cp-CAT, dose-response, in words [1] | % Transactivation [1] | behaviour in EMSA (competition for CBF1 complex, formation of supershifted EBNA2/CBF1 complex) [2] | transactivation of Cp-CAT relative to wild-type EBNA2 ([1]; highest levels of effector DNA) | transactivation of Cp-CAT relative to wild-type EBNA2 [1, 3] | % Complex formation ([2]; EBNA2/CBF1 supershifted complex relative to wild-type EBNA2(252-425), phosphoimager, reticulocyte lysate background subtracted) | behaviour in EMSA (competition for CBF1 complex, formation of supershifted EBNA2/CBF1 complex) ([2]; listed as glycine-arginine deletion) | amount of peptide required to convert all the CBF1 to the supershifted complex, versus type A EBNA2 ([2]; in vitro translated CBF1/RBPJk, two-fold increases of peptide)
1 | B1 | inability of this mutant to transactivate the Cp even at high doses of effector | 0% | did not compete for the CBF1 complex and produced little or no EBNA2/CBF1 supershifted complex | – | – | – | – | –
2 | B2 | mirrored that of wild-type EBNA2 | 120% | had no effect on the behavior of the peptide in the EMSA | – | – | – | – | –
3 | B3 | – | 2^c % | did not compete for the CBF1 complex and produced little or no EBNA2/CBF1 supershifted complex; also recorded: severely impaired the ability of the peptide to form a complex with CBF1 in an EMSA | 20% | 2% | – | – | –
4 | B4 | – | 150% | did not negatively affect EBNA2/CBF1 complex formation | – | 150% | 100% | did not negatively affect complex formation in the EMSA | –
5 | B5 | – | – | bound CBF1 comparably to type A EBNA2 | – | – | – | – | two-fold more
